Measured values: article doi:10.1101/2020.09.08.280818
pKd: −log10 of the molar value.

Assays:
[1] = target: SARS-CoV-2 spike glycoprotein stabilised in the prefusion conformation (P2 S), TwinStrep-tagged (SARS-CoV-2) (UniProt P0DTC2); assay: cryo-EM structure
[2] = target: human ACE2 peptidase domain (PD), Avi-tagged (human); assay: BLI

SARS-CoV-2 spike glycoprotein stabilised in the prefusion conformation (P2 S), TwinStrep-tagged (from UniProt P0DTC2 14-1273) (natural protein)
stoichiometry N [1]: 3 | pKd [2]: 9.00
